We go through one protein from publication doi:10.1101/243402v1.

Substrate in the data set: O=P(O)(O)OC[C@@H](O)[C@@H](O)[C@H](O)[C@H](O)CO
Description: purified protein. The settings on record: 100 mM Tris-HCl.

B1: SjaM1Pase2 (Saccharina japonica) (protein)
chain: MEQATANKDISILFDFDGTIGDTETPAMEVAFWELAPYLPDTTPDKLDNLMPEFVRDNAGKAFEFMVETVDEERKAAGMDSVEEMFAAKSEPQNMLDAVDPHRKKFGLKSFAELRAPEGGEAATLLIQQKTETVDALSKIAQPCNGVREVLAALTAATVPFCISTTSPKPRVPASITACGLDEYFPPDKVHSGESDFDPPRFKPNPSVYLKAAETEGKEPVNCIAVEDSGSGVGSASNAGVGLTVGYVGASHIPEYKKDTHAEMLMAGGRAENGKGAEIVISDMKDLLKIIDFFAGAKTAGKLAPFDFPTAMVASMQQPVWVHGKKA
As a reminder, the Km is the substrate concentration at which the rate is half of its maximum. As to B1, the Km worked out at 20 µM.
